± gives the uncertainty stated by the source.

This data set in a line: abundance fitness (aPCA) (normalised: wild type 0, dead -1); higher = more abundant; growth selection in yeast, the domain comes from the species named. The conditions noted are these: Homo sapiens.
For the substance “Scaffold attachment factor B2 V55W, Q14151”, the abundance fitness is -0.811 ± 0.1.

“Scaffold attachment factor B2 V55Y, Q14151” displayed an abundance fitness of -0.605 ± 0.18.

With “Scaffold attachment factor B2 V64A, Q14151”, the abundance fitness is -0.227 ± 0.096.

With “Scaffold attachment factor B2 V64C, Q14151”, the abundance fitness is -0.312 ± 0.14.

Substance “Scaffold attachment factor B2 V64D, Q14151” had an abundance fitness of -0.232 ± 0.18.

“Scaffold attachment factor B2 V64E, Q14151” gave an abundance fitness of -0.109 ± 0.098.

“Scaffold attachment factor B2 V64F, Q14151” had an abundance fitness of -0.326 ± 0.12.

“Scaffold attachment factor B2 V64G, Q14151” displayed an abundance fitness of -0.294 ± 0.091.

“Scaffold attachment factor B2 V64H, Q14151” yielded an abundance fitness of -0.173 ± 0.1.

The substance “Scaffold attachment factor B2 V64I, Q14151” showed an abundance fitness of -0.271 ± 0.14.

Turning to “Scaffold attachment factor B2 V64K, Q14151”, the abundance fitness was -0.035 ± 0.14.

In the case of “Scaffold attachment factor B2 V64L, Q14151”, the abundance fitness turned out to be 0.006 ± 0.098.

Turning to “Scaffold attachment factor B2 V64M, Q14151”, the abundance fitness was -0.013 ± 0.13.

Regarding “Scaffold attachment factor B2 V64N, Q14151”, the abundance fitness is -0.418 ± 0.21.

“Scaffold attachment factor B2 V64Q, Q14151”: the abundance fitness is -0.141 ± 0.16.

“Scaffold attachment factor B2 V64R, Q14151”: the abundance fitness is -0.14 ± 0.09.

In the case of “Scaffold attachment factor B2 V64S, Q14151”, the abundance fitness is -0.242 ± 0.084.

“Scaffold attachment factor B2 V64T, Q14151” displayed an abundance fitness of -0.123 ± 0.11.

Turning to “Scaffold attachment factor B2 V64W, Q14151”, the abundance fitness is -0.025 ± 0.086.

The substance “Scaffold attachment factor B2 V64Y, Q14151” came in with an abundance fitness of -0.274 ± 0.31.

As to “Tyrosine-protein kinase Lck D77E, P06239”, the abundance fitness is -0.02 ± 0.13.

In the case of “Tyrosine-protein kinase Lck E83K, P06239”, the abundance fitness was -0.049 ± 0.12.

“Tyrosine-protein kinase Lck E92N, P06239” showed an abundance fitness of -0.047 ± 0.14.

“Tyrosine-protein kinase Lck E96D, P06239” registered an abundance fitness of 0.069 ± 0.16.

On to “Tyrosine-protein kinase Lck E108T, P06239”, for which the abundance fitness came out at 0.034 ± 0.12.

In the case of “Tyrosine-protein kinase Lck F110Y, P06239”, the abundance fitness turned out to be 0.001 ± 0.19.

For “Tyrosine-protein kinase Lck F113S, P06239”, the abundance fitness was 0.094 ± 0.071.

With “Tyrosine-protein kinase Lck F115Y, P06239”, the abundance fitness was 0.148 ± 0.12.

With “Tyrosine-protein kinase Lck G78D, P06239”, the abundance fitness is -0.088 ± 0.099.

“Tyrosine-protein kinase Lck G81S, P06239”: the abundance fitness is -0.096 ± 0.078.

“Tyrosine-protein kinase Lck H70Y, P06239” had an abundance fitness of -0.029 ± 0.12.

With “Tyrosine-protein kinase Lck H76T, P06239”, the abundance fitness was -0.17 ± 0.1.

In turn, “Tyrosine-protein kinase Lck I67A, P06239” had an abundance fitness of -0.465 ± 0.1.

For “Tyrosine-protein kinase Lck I67C, P06239”, the abundance fitness is -0.193 ± 0.12.

The substance “Tyrosine-protein kinase Lck I67D, P06239” returned an abundance fitness of -0.506 ± 0.21.

“Tyrosine-protein kinase Lck I67E, P06239” came in with an abundance fitness of -0.146 ± 0.11.

In turn, “Tyrosine-protein kinase Lck I67F, P06239” displayed an abundance fitness of -0.102 ± 0.16.

In turn, “Tyrosine-protein kinase Lck I67G, P06239” gave an abundance fitness of -0.552 ± 0.079.

For the substance “Tyrosine-protein kinase Lck I67H, P06239”, the abundance fitness is -0.353 ± 0.13.

Substance “Tyrosine-protein kinase Lck I67K, P06239” displayed an abundance fitness of -0.442 ± 0.14.

“Tyrosine-protein kinase Lck I67N, P06239” came in with an abundance fitness of -0.206 ± 0.15.

“Tyrosine-protein kinase Lck I67P, P06239” showed an abundance fitness of -0.607 ± 0.15.

For the substance “Tyrosine-protein kinase Lck I67Q, P06239”, the abundance fitness was -0.394 ± 0.14.

Substance “Tyrosine-protein kinase Lck I67R, P06239” registered an abundance fitness of -0.263 ± 0.097.

Substance “Tyrosine-protein kinase Lck I67S, P06239” gave an abundance fitness of -0.378 ± 0.08.

In the case of “Tyrosine-protein kinase Lck I67T, P06239”, the abundance fitness was 0.151 ± 0.16.

As to “Tyrosine-protein kinase Lck I67W, P06239”, the abundance fitness is -0.078 ± 0.11.

“Tyrosine-protein kinase Lck I67Y, P06239” came in with an abundance fitness of 0.097 ± 0.25.

As for “Tyrosine-protein kinase Lck K99L, P06239”, the abundance fitness was -0.125 ± 0.074.

“Tyrosine-protein kinase Lck P74A, P06239” showed an abundance fitness of -0.414 ± 0.1.

Substance “Tyrosine-protein kinase Lck Q87R, P06239” returned an abundance fitness of -0.01 ± 0.077.

As for “Tyrosine-protein kinase Lck Q101H, P06239”, the abundance fitness is -0.328 ± 0.16.

Consider “Tyrosine-protein kinase Lck R89Q, P06239”, for which the abundance fitness was 0.125 ± 0.29.

Regarding “Tyrosine-protein kinase Lck S71D, P06239”, the abundance fitness was -0.095 ± 0.14.

The substance “Tyrosine-protein kinase Lck S75R, P06239” had an abundance fitness of -0.064 ± 0.081.

Values taken from the Human Domainome abundance scans (Beltran et al. 2025).
